Where no end group is shown, it is not given here.

The values below come from US20180141989A1 (BOARD OF REGENTS OF THE UNIVERSITY OF OKLAHOMA, published 2018).

The labels stand for the following.
B1: AM(37-52) S45R/K46L/S48G/Q50W (peptide)
peptide: DKDNVAPRRLIGPWGY-NH2
notes: also called AM(37-52)NH2 [S45R, K46L, S48G, Q50W]
B2: AM(37-52) S45R/K46W/S48G/Q50W (peptide)
peptide: DKDNVAPRRWIGPWGY-NH2
notes: also called AM(37-52)NH2 [S45R, K46W, S48G, Q50W]
B3: AM(37-52) S45R/K46W/I47L/S48G/Q50W (peptide)
peptide: DKDNVAPRRWLGPWGY-NH2
notes: also called AM(37-52)NH2 [S45R, K46W, I47L, S48G, Q50W]
B4: AM(37-52)NH2 [D39F, K46L, Q50W] (peptide)
peptide: DKFNVAPRSLISPWGY-NH2
B5: AM(37-52)NH2 [D39F, K46L, Q50W, Y52F] (peptide)
peptide: DKFNVAPRSLISPWGF-NH2
B6: CGRP(27-37)NH2 [N31D, S34P, K35F, A36S] (peptide)
peptide: FVPTDVGPFSF-NH2
B7: CGRP(27-37)NH2 [N31D, V32T, S34P, K35W, A36G, F37Y] (peptide)
peptide: FVPTDTGPWGY-NH2
B8: CGRP(27-37)NH2 [N31D, S34P, K35W] (peptide)
peptide: FVPTDVGPWAF-NH2
B9: CGRP(27-37)NH2 [N31D, S34P, K35W, A36S, F37Y] (peptide)
peptide: FVPTDVGPWSY-NH2
B10: AM(37-52)NH2 [S45W, K46W, Q50W, Y52F] (peptide)
peptide: DKDNVAPRWWISPWGF-NH2
B11: AM(37-52)NH2[S45T, K46W, Q50W] (peptide)
peptide: DKDNVAPRTWISPWGY-NH2
B12: AM(37-52)NH2 [S45W, K46M, Q50W, Y52F] (peptide)
peptide: DKDNVAPRWMISPWGF-NH2
B13: AM(37-52)NH2 [K46L, Q50W, Y52F] (peptide)
peptide: DKDNVAPRSLISPWGF-NH2
B14: AM(37-52)NH2 [K46L, Q50W] (peptide)
peptide: DKDNVAPRSLISPWGY-NH2
B15: AM(37-52)NH2 [D39K] (peptide)
peptide: DKKNVAPRSKISPQGY-NH2
B16: AM(37-52) D37V/S45W/K46L/Q50W/Y52F (peptide)
peptide: VKDNVAPRWLISPWGF-NH2
notes: also called AM(37-52)NH2 [D37V, S45W, K46L, Q50W, Y52F]
B17: AM(37-52) S45R/K46L/Q50W (peptide)
peptide: DKDNVAPRRLISPWGY-NH2
notes: also called AM(37-52)NH2 [S45R, K46L, Q50W]
B18: AM(37-52) S45R/K46W/Q50W (peptide)
peptide: DKDNVAPRRWISPWGY-NH2
notes: also called AM(37-52)NH2 [S45R, K46W, Q50W]

MBP-RAMP2 ECD [L106R]-(GS)5-CLR ECD-H6 fusion protein (human), sequence (O60895 other isoform, or with tags, fused parts or gaps L106R L106R): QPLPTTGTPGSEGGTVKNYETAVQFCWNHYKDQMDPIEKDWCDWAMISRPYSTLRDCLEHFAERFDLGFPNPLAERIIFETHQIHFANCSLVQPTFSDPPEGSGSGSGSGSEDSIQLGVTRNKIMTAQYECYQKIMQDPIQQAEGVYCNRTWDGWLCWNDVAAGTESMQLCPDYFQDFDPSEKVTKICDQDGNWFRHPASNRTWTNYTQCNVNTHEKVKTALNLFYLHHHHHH
T1 sequence (O60894 other isoform, or with tags, fused parts or gaps limits assumed, form in doubt): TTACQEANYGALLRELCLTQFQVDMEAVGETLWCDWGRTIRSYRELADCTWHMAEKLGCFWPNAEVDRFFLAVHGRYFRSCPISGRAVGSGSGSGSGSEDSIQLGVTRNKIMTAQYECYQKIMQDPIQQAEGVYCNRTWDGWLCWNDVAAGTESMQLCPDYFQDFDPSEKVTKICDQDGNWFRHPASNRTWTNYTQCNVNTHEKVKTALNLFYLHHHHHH

The first assay has as its target T1, MBP-RAMP1 ECD-(GS)5-CLR ECD-H6 fusion protein (human, UniProt O60894 24-111; Q16602 29-144).
T1 construct: range 24-111;range 29-144; Tethered ECD fusion made in E. coli; used in the FP assay at 15 nM; also called MBP-hRAMP1.24-111-(Gly-Ser)5-hCLR.29-144-H6
Briefly: FP (anisotropy) competition: displaces FITC-Ahx-AM(37-52)NH2[S45W,Q50W] probe (7 nM) from MBP-RAMP1 ECD-(GS)5-CLR ECD-H6 (15 nM) [I-J) upper graph]. As to the method:
(§1) Fluorescence polarization peptide binding assay. […] The reactions (50 μL) were incubated for 2 hours at room temperature to reach equilibrium, and the anisotropy was measured in black half-area 96-well plates using a BMG LABTECH's POLARstar® Omega plate reader (Ortenberg, Germany). The reaction buffer was 50 mM HEPES, pH 7.5, 150 mM NaCl, 0.5 mg/ml fatty acid-free BSA, 0.5 mM EDTA, 0.5 mM maltose. KI values were calculated using nonlinear regression fitting of the competition curves to the exact analytical equations of Roehrl et al. (Biochemistry (2004) 43:16056-66) using GraphPad Prism 5.0 (GraphPad Software, San Diego Calif.).
Consider B1, for which the “IC50 (read off the curve)” value is about 20 nM.
Still for that read-out and setting: then B2, with about 100 nM.
The same measure, in the same setting: then B3, with about 100 nM.

A further assay has as its target T1, MBP-RAMP1 ECD-(GS)5-CLR ECD-H6 fusion …. Briefly: FP (anisotropy) competition: displaces FITC-Ahx-AM(37-52)NH2[S45W,Q50W] probe (7 nM) from MBP-RAMP1 ECD-(GS)5-CLR ECD-H6 (15 nM) [D-E) panel D]. The method, then:
as §1
Consider B4, for which the “IC50 (read off the curve)” value was about 200 nM.
The same measure, in the same setting: next, B5: about 80 nM.

For another assay the target is unchanged. As to the kind of experiment: FP competition vs FITC-AM W/W probe, purified ECD fusion. As to the method:
as §1
(§2) The large size difference between the MBP-RAMP ECD-CLR ECD fusion proteins (˜65 kDa) and the probe (˜2.5 kDa) ensures a significant anisotropy difference between bound and free states of the probe. […] Kd values for the probe at each of the tethered ECD fusion proteins were determined in equilibrium saturation binding experiments (data not shown), and KI values were determined for unlabeled peptides in equilibrium competition experiments (Table 1; FIGS. 2-5). The data were analyzed according to exact analytical equations using non-linear regression curve fitting in GraphPad Prism 5.0 (GraphPad Software) via user-defined equations.
By Ki is commonly meant the equilibrium dissociation constant of an inhibitor or competing ligand from its target. Lower therefore signals higher affinity. In turn, B6 yielded a Ki of 2.95 nM and a pKI of 8.53.
Taken in the same sequence, the figures for B7 were 17.6 nM and 7.75.
For B8, the inhibition constant (Ki) was determined as 8.13 nM and the pKI was 8.09.
Taken in the same sequence, the figures for B9 were 1.32 nM and 8.88.
Taken in the same sequence, the figures for B10 were 24 nM and 7.62.
On to B11, for which the Ki came to 440 nM and the pKI is 6.36.
In turn, B12 yielded a Ki of 7.94 nM and a pKI of 8.1.
On the same counts, the results for B4 are 82.2 nM and 7.1.
On the same counts, the results for B13 are 31.6 nM and 7.5.
B14: the affinity corresponds to a Ki of 70.8 nM and the pKI worked out at 7.15.
For B5, affinity was put at a Ki of 25 nM and the pKI was 7.61.

For another assay the target is unchanged. As to the kind of experiment: FP (anisotropy) competition: displaces FITC-Ahx-AM(37-52)NH2[S45W,Q50W] probe (7 nM) from MBP-RAMP1 ECD-(GS)5-CLR ECD-H6 (15 nM) [D-E) panel E]. The method, then:
as §1
Turning to B10, the “IC50 (read off the curve)” value was about 70 nM.
B12: the “IC50 (read off the curve)” value was about 30 nM.

Another assay has the same target. Briefly: ratio of FP KI values at the two ECD complexes. As to the method:
as §1, §2
In the case of B7, the “Receptor Selectivity (fold, over RAMP2-CLR ECD)” value was 821 fold.
As to B9, the “Receptor Selectivity (fold, over RAMP2-CLR ECD)” value was 245 fold.
Still for that read-out and setting: next, B10: 692 fold; B11: 28 fold; B12: 977 fold.
The same measure, in the same setting: next, B4: 22 fold; B13: 2820 fold.
On the same count and under the same terms, next, B14: 23 fold; B5: 1210 fold.

The next assay addresses MBP-RAMP2 ECD [L106R]-(GS)5-CLR ECD-H6 fusion protein (human) (UniProt O60895). Briefly: FP (anisotropy) competition: displaces FITC-Ahx-AM(37-52)NH2[S45W,Q50W] probe (7 nM) from MBP-RAMP2 ECD[L106R]-(GS)5-CLR ECD-H6 (110 nM) [I-K) panel J].
Turning to B1, the IC50 (read off the curve) is 90 nM.
Still for that read-out and setting: next, B2: 700 nM; B3: 1000 nM.

A further assay deals with T1, MBP-RAMP1 ECD-(GS)5-CLR ECD-H6 fusion …. Briefly: FP (anisotropy) competition: displaces FITC-Ahx-AM(37-52)NH2[S45W,Q50W] probe (7 nM) from MBP-RAMP1 ECD-(GS)5-CLR ECD-H6 (15 nM) [A-C) panel C]. As to the method:
as §1
With B13, the “IC50 (read off the curve)” value is about 100 nM.
For the molecule B14, the “IC50 (read off the curve)” value was about 100 nM.

The next assay addresses MBP-RAMP2 ECD [L106R]-(GS)5-CLR ECD-H6 fusion protein (human) (UniProt O60895). As to the kind of experiment: FP competition vs FITC-AM W/W probe, purified ECD fusion.
Consider B7, for which the Ki stood at 14500 nM and the pKI worked out at 4.84.
Taken in the same sequence, the figures for B9 were 324 nM and 6.49.
Taken in the same sequence, the figures for B10 were 16600 nM and 4.78.
For the molecule B11, the Ki came out at 12500 nM and the pKI is 4.9.
Taken in the same sequence, the figures for B12 were 7760 nM and 5.11.
On the same counts, the results for B4 are 1830 nM and 5.74.
On the same counts, the results for B13 are 89100 nM and 4.05.
B14 returned a Ki of 1660 nM and a pKI of 5.78.
Taken in the same sequence, the figures for B5 were 30300 nM and 4.55.
For B15, the inhibition constant (Ki) was determined as 6100 nM and the pKI was 5.22.

Another assay deals with T1, MBP-RAMP1 ECD-(GS)5-CLR ECD-H6 fusion …. Briefly: FP (anisotropy) competition: displaces FITC-Ahx-AM(37-52)NH2[S45W,Q50W] probe (7 nM) from MBP-RAMP1 ECD-(GS)5-CLR ECD-H6 (15 nM) [A-C) panel C]. The source holds these as a separate data set. The method, then: as §1
as §1, with “Single representative experiments conducted with duplicate samples are shown.” for “Fluorescence polarization peptide binding assay.”, “reactions” for “reactions (50 μL)”
As for B9, the “IC50 (read off the curve)” value was about 20 nM.

The target is the same in the next assay. As to the kind of experiment: FP (anisotropy) competition: displaces FITC-Ahx-AM(37-52)NH2[S45W,Q50W] probe (7 nM) from MBP-RAMP1 ECD-(GS)5-CLR ECD-H6 (15 nM) [A-C) panel B]. As to the method: as §1
as §1, with “Single representative experiments conducted with duplicate samples are shown.” for “Fluorescence polarization peptide binding assay.”, “reactions” for “reactions (50 μL)”
For B6, the “IC50 (read off the curve)” value is about 20 nM.
On the same count and under the same terms, next, B8: about 20 nM.

A further assay has the same target. As to the kind of experiment: FP (anisotropy) competition: displaces FITC-Ahx-AM(37-52)NH2[S45W,Q50W] probe (7 nM) from MBP-RAMP1 ECD-(GS)5-CLR ECD-H6 (15 nM) [I-J) lower graph]. As to the method: as §1
Turning to B16, the “IC50 (read off the curve)” value is about 10 nM.

A further assay has the same target. As to the kind of experiment: FP (anisotropy) competition: displaces FITC-Ahx-AM(37-52)NH2[S45W,Q50W] probe (7 nM) from MBP-RAMP1 ECD-(GS)5-CLR ECD-H6 (15 nM) [F-H) panel H]. As to the method: as §1
Take B17: the “IC50 (read off the curve)” value was about 90 nM.
Still for that read-out and setting: next, B18: about 300 nM.

Another assay has as its target MBP-RAMP2 ECD [L106R]-(GS)5-CLR ECD-H6 fusion protein (human) (UniProt O60895). As to the kind of experiment: FP (anisotropy) competition: displaces FITC-Ahx-AM(37-52)NH2[S45W,Q50W] probe (7 nM) from MBP-RAMP2 ECD[L106R]-(GS)5-CLR ECD-H6 (110 nM) [I-K) panel I].
Molecule B17 returned an IC50 (read off the curve) of 300 nM.
On the same count and under the same terms, next, B18: 2000 nM.
